Consider 19 sequences from the supplement of paper PMC9170038.

The series relates to MS2 coat protein. The experiment in a line: apparent KD of MS2 coat protein; higher = weaker reporter binding. The following applies: Eterna round: R107. In outline:
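Designed RNA switches were made by on-chip transcription from Illumina sequencing clusters and then titrated with SNAP-549-labelled MS2 coat protein. Twofold steps ran from 0.7 or 1.5 nM to 3 µM, each lasting 0.8–1.5 h early and 10–20 min late, in 100 mM Tris-HCl pH 7.5, 80 mM KCl, 4 mM MgCl2, without or with constant ligand. Apparent KD is the per-design median of normalised cluster binding-curve fits.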

Setting [1] is: input ligand: theophylline 20 uM.
The mark [2] stands for this setting: input ligand: theophylline 2 mM.
Setting [3] is: input ligand: tryptophan 2.4 mM.

As to “GUAAUUUAUUGAAGGAGCGUCGAAAAUGGGUAAACAUGAGGAUCACCCAUGUAAAGGGAACGACAGGUAGGUCGCAAUAGGUUAC [AstromonsSSArgB#29]”, the “apparent KD of MS2 coat protein” value is 0.103 µM (input ligand: arginine 13.2 mM); 0.192 µM (input ligand: none); 0.252 µM under setting [1]; 0.285 µM under setting [2]; 0.197 µM under setting [3].
On the same counts, the results for “GUACAUGAGGAUCACCCAUGUAUAGUUGAAGGAGCGACCAGAGGGUCAGGUAGGUCGCAGCACAUGGUGUAAACCCGUGUAUGCC [#1 Exclusion - Arginine A Attempt #22 (Inspired by Pi)]” are 0.0296 µM, 0.0293 µM, 0.0346 µM, 0.0289 µM and 0.0268 µM.
For “GUAUAUUGAAAACAAUAUACAGUGGGUGAACGAGGACCGGUACGGCCGCCACUCGGACAUGAGGAUCACCCAUGUCCAUGUGAAA [AstrosExyTryA#8]”, the “apparent KD of MS2 coat protein” value by setting is: (input ligand: arginine 13.2 mM) 0.0151 µM; under setting [1], 0.0171 µM; under setting [2], 0.0177 µM.
Regarding “GUAUUCAUGACGGCCGCCACUGCAAGCCUCCUCAUGGCAGAUUGACAUGAGGAUCACCCAUGUCUCAGGACCGGGUCUGGCAUCC [theeternabot_sameState_MS2_Trp_B_43]”, the “apparent KD of MS2 coat protein” value (input ligand: arginine 13.2 mM) was determined as 0.0658 µM, the “apparent KD of MS2 coat protein” value under setting [1] came to 0.244 µM and the “apparent KD of MS2 coat protein” value under setting [2] came out at 0.346 µM.
As to “GUAUUUAUAUGAAGGAGCGUCGAAAAUGGGUAAACAUGAGGAUCACCCAUGUAAAGGGAACGACAGGUAGGUCGCAUAUGGAUAC [AstromonsSSArgB#25]”, the “apparent KD of MS2 coat protein” value reads like this: (input ligand: arginine 13.2 mM) 0.111 µM; (input ligand: none) 0.16 µM; under setting [1], 0.251 µM; under setting [2], 0.279 µM; under setting [3], 0.239 µM.
In the case of “GUCCAAAGGUCGGCCGCCACUGUAGGAUGUGUUCUUUCACAUGAGGAUCACCCAUGUUGUUAUUAUAGGACCGGGAUUGUAGGAC [39MS split4]”, the “apparent KD of MS2 coat protein” value by setting is: (input ligand: arginine 13.2 mM) 0.0164 µM; under setting [1], 0.0322 µM; under setting [2], 0.0215 µM.
In the case of “GUCGGAGUCUGAAGGAGCGACAUGAGGAUCACCCAUGUCUCCCGUUAUGGGAGUUCCUUAGGUCAGGUAGGUCGCAGACUCCGAC [#1 Exclusion - Arginine B Attempt #25 (Inspired by Omei)]”, the “apparent KD of MS2 coat protein” value worked out at 0.0781 µM (input ligand: arginine 13.2 mM); 0.141 µM (input ligand: none); 0.145 µM under setting [1]; 0.144 µM under setting [2]; 0.14 µM under setting [3].
As to “GUCGGUACGUCGGCAAAGCCGAUGUGCCAGCGAGGACCGGUACGGCCGCCACUCGUACAUGAGGAUCACCCAUGUCCGGUCCGAC [Omei Trp SS A C v4]”, the “apparent KD of MS2 coat protein” value (input ligand: arginine 13.2 mM) was found to be 0.0447 µM; the “apparent KD of MS2 coat protein” value (input ligand: none) came out at 0.134 µM; the “apparent KD of MS2 coat protein” value under setting [1] is 0.139 µM; the “apparent KD of MS2 coat protein” value under setting [2] was found to be 0.169 µM; the “apparent KD of MS2 coat protein” value under setting [3] turned out to be 0.155 µM.
“GUCUUGGGAUCGGCCGCCACUACAUGAGGAUCACCCAUGUGGACAAAUAGGGUUUUUAAGCUCGGUAGGACCGGGAUUCGGACAU [Marasosoge]”: the “apparent KD of MS2 coat protein” value was found to be 0.0129 µM (input ligand: arginine 13.2 mM), 0.0167 µM under setting [1] and 0.0163 µM under setting [2].
As for “GUGACUUACGGGCGCCAUUUGUGAUAGGAAGGAGCGGCGAAAUAGCCAGGUAGGUCGCCUAUACAUGAGGAUCACCCAUGUCACC [Veveatonus]”, the “apparent KD of MS2 coat protein” value by setting is: (input ligand: arginine 13.2 mM) 0.0451 µM; (input ligand: none) 0.105 µM; under setting [1], 0.0649 µM; under setting [2], 0.0846 µM; under setting [3], 0.0726 µM.
Regarding “GUGCCGCAUUCACAUGAGGAUCACCCAUGUCGAGGACCGGUACGGCCGCCACUCGACGUGCUUACAGGUCCUUUAAGGCCCAAUA [Usislaan]”, the “apparent KD of MS2 coat protein” value (input ligand: arginine 13.2 mM) is 0.079 µM, the “apparent KD of MS2 coat protein” value under setting [1] is 0.2 µM and the “apparent KD of MS2 coat protein” value under setting [2] is 0.221 µM.
Take “GUGCCGCAUUCACAUGAGGAUCACCCAUGUCGAGGACCGGUACGGCCGCCACUCGACGUGCUUACAGGUCCUUUACGGCCCAAUA [Biedxele]”: the “apparent KD of MS2 coat protein” value by setting is: (input ligand: arginine 13.2 mM) 0.0307 µM; under setting [1], 0.0713 µM; under setting [2], 0.0369 µM.
For the sequence “GUGGGUUUGCGAAGGAGCGGGUAUGUUUUCUACUGGAUCCUAACAUGAGGAUCACCCAUGUCCCAGGUAGGUCGCGCGGGCUUGG [12.Z]”, the “apparent KD of MS2 coat protein” value was 0.0497 µM (input ligand: arginine 13.2 mM); 0.215 µM (input ligand: none); 0.0819 µM under setting [1]; 0.209 µM under setting [2]; 0.0568 µM under setting [3].
With “GUUGUAUACUCGGCCGCCACUGAGAGAGUCAUGUAAACAUGAGGAUCACCCAUGUAAUAUAUAUACAGGACCGGGAGUGUGGUAA [4.G]”, the “apparent KD of MS2 coat protein” value by setting is: (input ligand: arginine 13.2 mM) 0.00931 µM; (input ligand: none) 0.0128 µM; under setting [1], 0.016 µM; under setting [2], 0.012 µM; under setting [3], 0.0118 µM.
For the sequence “UAAGCGCGAGGAGACGGAACCAAUCUUGUUCGAGGACCGGUACGGCCGCCACUCGGCGUAAAACAUGAGGAUCACCCAUGUGCAA [theeternabot_exclusion_MS2_Trp_A_18]”, the “apparent KD of MS2 coat protein” value (input ligand: arginine 13.2 mM) came out at 0.0108 µM; the “apparent KD of MS2 coat protein” value (input ligand: none) amounted to 0.0132 µM; the “apparent KD of MS2 coat protein” value under setting [1] was 0.0156 µM; the “apparent KD of MS2 coat protein” value under setting [2] was determined as 0.0161 µM; the “apparent KD of MS2 coat protein” value under setting [3] was 0.0164 µM.
On to “UAAUAAGUACCGGUUCUCAGAUCCUCAUGUCGAGGACCGGUACGGCCGCCACUCGAAACAUGAGGAUCACCCAUGUAAUAAUAAU [#07 Exclusion Tryptophan A]”, for which the “apparent KD of MS2 coat protein” value runs as follows: (input ligand: arginine 13.2 mM) 0.0235 µM; under setting [1], 0.0671 µM; under setting [2], 0.0545 µM.
“UACAGCAGUACGGCCGCCACUCUAAGAUUGCGCGUUUAGGCCAUACAUGAGGAUCACCCAUGUCCGAGGACCGGGUACAGGAAUU [theeternabot_sameState_MS2_Trp_B_29]”: the “apparent KD of MS2 coat protein” value (input ligand: arginine 13.2 mM) was found to be 0.0883 µM; the “apparent KD of MS2 coat protein” value (input ligand: none) stood at 0.185 µM; the “apparent KD of MS2 coat protein” value under setting [1] was determined as 0.416 µM; the “apparent KD of MS2 coat protein” value under setting [2] worked out at 0.502 µM; the “apparent KD of MS2 coat protein” value under setting [3] amounted to 0.0892 µM.
Turning to “UACAUGAGGAUCACCCAUGUAAGGUGAGAUACCAGUGAUAUGCUACACCCUUGGCAGCUCACGGCUGACUAUCAGCACACAUGUA [Theo A SS t1]”, the “apparent KD of MS2 coat protein” value runs as follows: (input ligand: arginine 13.2 mM) 0.0282 µM; under setting [1], 0.0344 µM; under setting [3], 0.0268 µM.
On the same counts, the results for “UACAUGAGGAUCACCCAUGUAUGAAUAGAUACCAGCGAAAAUAAGCGCCCUUGGCAGCUAGUGAAUAAAGGGUGGGUAAAAUAAU [Exclusion Theophyline A GF 2]” are 0.0083 µM, 0.0136 µM and 0.00941 µM.
